The record followed here is article PMC4442024 (Nature, 2015).

Where “and” joins values, the source holds several entries; their conditions need not be identical. Equal values may be shown once.

First the molecules themselves.
B1: purified recombinant Flag-tagged SNAP29 (natural protein, human, UniProt O95721 1-258, looked up)
chain: MSAYPKSYNPFDDDGEDEGARPAPWRDARDLPDGPDAPADRQQYLRQEVLRRAEATAASTSRSLALMYESEKVGVASSEELARQRGVLERTEKMVDKMDQDLKISQKHINSIKSVFGGLVNYFKSKPVETPPEQNGTLTSQPNNRLKEAISTSKEQEAKYQASHPNLRKLDDTDPVPRGAGSAMSTDAYPKNPHLRAYHQKIDSNLDELSMGLGRLKDIALGMQTEIEEQDDILDRLTTKVDKLDVNIKSTERKVRQL
B2: purified recombinant Flag-tagged VAMP8 (natural protein, human, UniProt Q9BV40 1-100, looked up)
chain: MEEASEGGGNDRVRNLQSEVEGVKNIMTQNVERILARGENLEHLRNKTEDLEATSEHFKTTSQKVARKFWWKNVKMIVLICVIVFIIILFIVLFATGAFS

Assay [1] addresses purified recombinant ATG14 (UniProt Q6ZNE5). The experiment in a line: SEC-MALS.
Assay [2] addresses T1, purified recombinant Flag–STX17 (human, UniProt P56962 1-302).
T1 sequence (looked up): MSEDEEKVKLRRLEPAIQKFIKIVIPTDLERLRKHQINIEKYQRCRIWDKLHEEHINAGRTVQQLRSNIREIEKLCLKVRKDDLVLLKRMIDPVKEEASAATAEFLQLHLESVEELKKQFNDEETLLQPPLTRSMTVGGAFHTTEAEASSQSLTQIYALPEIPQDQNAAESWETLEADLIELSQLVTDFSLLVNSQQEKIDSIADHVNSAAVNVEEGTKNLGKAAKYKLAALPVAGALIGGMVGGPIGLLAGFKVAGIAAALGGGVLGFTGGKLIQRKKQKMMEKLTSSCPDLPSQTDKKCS
The experiment in a line: SEC. For orientation: Size exclusion chromatography separates by hydrodynamic size, large species first.

Assay [3] has as its target B1. The experiment in a line: SEC.

Usually stoichiometry N stands for a count of units in the complex or per binding partner. Regarding “purified recombinant ATG14 (from UniProt Q6ZNE5 1-492) (natural protein; other documents disagree on this pair)”, in assay [1], the stoichiometry N was 2 and 4.

As for B1, in assay [2], the binding result was “binds”. For B2, the binding result in assay [3] was “binds”.
